In data set [1] the target is T1, 4-hydroxymandelate synthase (Hms, HMS) from Streptomyces coelicolor A3 (2), wild type, SEQ ID No. 1 (Streptomyces coelicolor, UniProt Q9Z4X7).
T1 sequence (Q9Z4X7 1-371): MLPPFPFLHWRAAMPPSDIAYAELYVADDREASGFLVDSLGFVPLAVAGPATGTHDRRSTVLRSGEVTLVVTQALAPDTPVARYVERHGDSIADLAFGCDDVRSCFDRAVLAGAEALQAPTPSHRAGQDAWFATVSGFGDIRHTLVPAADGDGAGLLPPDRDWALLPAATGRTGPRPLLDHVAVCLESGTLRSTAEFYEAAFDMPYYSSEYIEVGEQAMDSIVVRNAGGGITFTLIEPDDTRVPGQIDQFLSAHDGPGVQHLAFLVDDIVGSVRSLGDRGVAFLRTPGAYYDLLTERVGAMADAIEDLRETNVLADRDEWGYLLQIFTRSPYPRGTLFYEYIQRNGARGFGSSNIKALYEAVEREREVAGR
The conditions noted are these: Table 2; apparent, air saturation (260 µM dioxygen), Tris buffer 20 mM pH 7.5, 25°C.

In data set [2] the test system is O=C(O)C(=O)Cc1ccccc1. Description: Steady state kinetics by O2 depletion, HMS variant I236F. It is filed as biochemical, Streptomyces coelicolor A3 (2). The conditions noted are these: other: Table 3, apparent, air saturation, pH 7.5, 25.0 °C. As to the method:
(§1) Dioxygen consumption was continuously monitored using a micro-optode O2 sensor (Microtox TX3-AOT, Presens GmbH,Regensburg, Germany). Assays were generally performed at 25°C in air saturated 20 mM Tris/HCl buffer, pH 7.5 with enzyme concentrations of approx. 20 µM. To start the reaction, substrate aliquots were added from 5 mM stock solutions of the respective substrate to the desired end-concentration in a total volume of 500 µL. Initial rates were determined by linear regression analysis using the initial, linear part of the O2 depletion curve. O2 consumption rates from blanks that contained substrate in the absence of enzyme were subtracted as necessary. Specific activities were obtained by relating measured rates of O2 depletion to the protein derived Fe(II) content in the assay.
(§2) Kinetic analysis was performed via measuring O2 depletion. Kinetic parameters are apparent, as measurements were performed at air saturation. Product analysis was performed via HPLC (method is outlined in Appendix B) and confirmed via GC-MS. It could be shown that the enzyme converts phenylpyruvate analogues as a whole cell system, when a substrate analogue (e.g. p-F-phenylpyruvate) was added to cultures of E.coli BL21 cells overexpressing HMS variant S221M_V223M_Y359A. The overexpression was induced with IPTG as described in Material and Methods. […]

Data set [3] relates to O=C(O)C(=O)Cc1ccccc1. Description: Steady state kinetics by O2 depletion, HMS variant S221M. It is filed as biochemical, Streptomyces coelicolor A3 (2). The conditions noted are these: other: Table 3, apparent, air saturation, pH 7.5, 25.0 °C. Here is the method: as §1, §2
Data set [4] relates to O=C(O)C(=O)Cc1ccccc1. Nature of the data set: Steady state kinetics by O2 depletion, HMS variant S221M_Y359A. It is filed as biochemical, Streptomyces coelicolor A3 (2). The conditions noted are these: other: Table 3, apparent, air saturation, pH 7.5, 25.0 °C. Here is the method: as §1, §2
The subject of data set [5] is O=C(O)C(=O)Cc1ccccc1. Description: Steady state kinetics by O2 depletion, HMS variant V223F Y359A. It is filed as biochemical, Streptomyces coelicolor A3 (2). The conditions noted are these: other: Table 3, apparent, air saturation, pH 7.5, 25.0 °C. Here is the method:
as §1, §2

Data set [6] has as its system O=C(O)C(=O)Cc1ccccc1. Description: Steady state kinetics by O2 depletion, HMS variant V223F. It is filed as biochemical, Streptomyces coelicolor A3 (2). Conditions: other: Table 3, apparent, air saturation, pH 7.5, 25.0 °C. Here is the method:
as §1, §2

Data set [7] relates to O=C(O)C(=O)Cc1ccccc1. Nature of the data set: Steady state kinetics by O2 depletion, HMS variant V223M. It is filed as biochemical, Streptomyces coelicolor A3 (2). Conditions: other: Table 3, apparent, air saturation, pH 7.5, 25.0 °C. As to the method: as §1, §2
Data set [8] deals with O=C(O)C(=O)Cc1ccccc1. Nature of the data set: Steady state kinetics by O2 depletion, HMS variant V223W. It is filed as biochemical, Streptomyces coelicolor A3 (2). The conditions noted are these: other: Table 3, apparent, air saturation, pH 7.5, 25.0 °C. As to the method:
as §1, §2

In data set [9] the test system is O=C(O)C(=O)Cc1ccccc1. Nature of the data set: Steady state kinetics by O2 depletion, HMS variant Y359A. It is filed as biochemical, Streptomyces coelicolor A3 (2). The conditions noted are these: other: Table 3, apparent, air saturation, pH 7.5, 25.0 °C. Here is the method:
as §1, §2

Substrate in data set [10]: COc1ccc(CC(=O)C(=O)O)cc1
Nature of the data set: purified protein, by the assay type. The conditions noted are these: other: Table 2, apparent, air saturation (260 µM dioxygen), Tris buffer 20 mM pH 7.5, 25°C.

Substrate in data set [11]: O=C(O)C(=O)Cc1ccccc1
Description: purified protein, by the assay type. Conditions: other: Table 3; apparent, air saturation, O2 depletion; pH 7.5; 25.0 °C.

Substrate in data set [12]: Cc1ccc(CC(=O)C(=O)O)cc1
Description: purified protein, by the assay type. The conditions noted are these: other: Table 2, apparent, air saturation (260 µM dioxygen), Tris buffer 20 mM pH 7.5, 25°C.

Substrate in data set [13]: O=C(O)C(=O)Cc1ccc(F)cc1
Nature of the data set: purified protein, by the assay type. The conditions noted are these: other: Table 2, apparent, air saturation (260 µM dioxygen), Tris buffer 20 mM pH 7.5, 25°C.

Substrate in data set [14]: O=C(O)C(=O)Cc1ccc([N+](=O)[O-])cc1
Nature of the data set: purified protein, by the assay type. Conditions: other: Table 2, apparent, air saturation (260 µM dioxygen), Tris buffer 20 mM pH 7.5, 25°C.

In general, kcat refers to the number of substrate molecules converted per active site and unit of time at saturation. In general, Km refers to the substrate concentration at which the rate is half of its maximum.

As to `COc1ccc(CC(=O)C(=O)[O-])cc1.[Na+]`, the kcat in [1] turned out to be 0.96 ± 0.12 s⁻¹.
As for “4-hydroxymandelate synthase (HMS) from Streptomyces coelicolor A3 (2), variant I236F (Streptomyces coelicolor A3(2); I236F)”, in the data set with O=C(O)C(=O)Cc1ccccc1 [2], the Km is reported as 2.0 mM and the kcat came out at 0.9 s⁻¹.
As for “4-hydroxymandelate synthase (HMS) from Streptomyces coelicolor A3 (2), variant S221M, SEQ ID No. 6 (Streptomyces coelicolor A3(2); S221M)”, in the data set with O=C(O)C(=O)Cc1ccccc1 [3], the Km came to 0.33 mM and the kcat turned out to be 1.9 s⁻¹.
For the molecule “4-hydroxymandelate synthase (HMS) from Streptomyces coelicolor A3 (2), variant S221M_Y359A, SEQ ID No. 8 (Streptomyces coelicolor A3(2); S221M/Y359A)”, in the data set with O=C(O)C(=O)Cc1ccccc1 [4], the Km amounted to 0.24 mM and the turnover number (kcat) was determined as 1.1 s⁻¹.
With “4-hydroxymandelate synthase (HMS) from Streptomyces coelicolor A3 (2), variant V223F Y359A (V223F_Y359A), SEQ ID No. 7 (Streptomyces coelicolor A3(2); V223F/Y359A)”, in the data set on O=C(O)C(=O)Cc1ccccc1 [5], the Michaelis-Menten constant (Km) is 1.0 mM and the kcat came out at 2.1 s⁻¹.
For “4-hydroxymandelate synthase (HMS) from Streptomyces coelicolor A3 (2), variant V223F, SEQ ID No. 2 (Streptomyces coelicolor A3(2); V223F)”, in the data set with O=C(O)C(=O)Cc1ccccc1 [6], the Km amounted to 0.027 mM and the turnover number (kcat) is 1.1 s⁻¹.
As for “4-hydroxymandelate synthase (HMS) from Streptomyces coelicolor A3 (2), variant V223M, SEQ ID No. 4 (Streptomyces coelicolor A3(2); V223M)”, in the data set on O=C(O)C(=O)Cc1ccccc1 [7], the Michaelis constant (Km) came to 0.23 mM and the kcat was determined as 1.9 s⁻¹.
“4-hydroxymandelate synthase (HMS) from Streptomyces coelicolor A3 (2), variant V223W, SEQ ID No. 3 (Streptomyces coelicolor A3(2); V223W)”: in the data set with O=C(O)C(=O)Cc1ccccc1 [8], the Michaelis-Menten constant (Km) was found to be 0.23 mM and the kcat was found to be 0.5 s⁻¹.
Take “4-hydroxymandelate synthase (HMS) from Streptomyces coelicolor A3 (2), variant Y359A, SEQ ID No. 5 (Streptomyces coelicolor A3(2); Y359A)”: in the data set with O=C(O)C(=O)Cc1ccccc1 [9], the Michaelis constant (Km) came out at 0.27 mM and the kcat stood at 4.8 s⁻¹.

B1: 4-hydroxymandelate synthase (Hms, HMS) from Streptomyces coelicolor A3 (2), wild type, SEQ ID No. 1 (Streptomyces coelicolor A3(2)) (protein)
chain: T1 sequence (Q9Z4X7 1-371)
For B1, the Michaelis constant (Km) was 160 ± 70 µM in data set [10] and 0.35 mM in data set [11]. The turnover number (kcat) in data set [11] was found to be 0.9 s⁻¹; in data set [12] it was 0.13 ± 0.02 s⁻¹; in [13], 0.077 ± 0.004 s⁻¹; in data set [14] it was 0.035 ± 0.007 s⁻¹.
